# Assay results as given in publication PMC7221550, “Membrane Phospholipids and Polyphosphates as Cofactors and Binding Molecules of SERPINA12 (vaspin)” (Molecules, 2020).
# B1: Recombinant human vaspin wild type (visceral adipose tissue derived serine protease inhibitor, SERPINA12) (natural protein)
# chain: KPSFSPRNYKALSEVQGWKQRMAAKELARQNMDLGFKLLKKLAFYNPGRNIFLSPLSISTAFSMLCLGAQDSTLDEIKQGFNFRKMPEKDLHEGFHYIIHELTQKTQDLKLSIGNTLFIDQRLQPQRKFLEDAKNFYSAETILTNFQNLEMAQKQINDFISQKTHGKINNLIENIDPGTVMLLANYIFFRARWKHEFDPNVTKEEDFFLEKNSSVKVPMMFRSGIYQVGYDDKLSCTILEIPYQKNITAIFILPDEGKLKHLEKGLQVDTFSRWKTLLSRRVVDVSVPRLHMTGTFDLKKTLSYIGVSKIFEEHGDLTKIAPHRSLKVGEAVHKAELKMDERGTEGAAGTGAQTLPMETPLVVKIDKPYLLLIYSEKIPSVLFLGKIVNPIGK
# Biological target: Recombinant human kallikrein 7 (KLK7) (human, UniProt P49862 30-253)
# Assay: cell-based or functional assay
# Recombinant human kallikrein 7 (KLK7), sequence (P49862 30-253): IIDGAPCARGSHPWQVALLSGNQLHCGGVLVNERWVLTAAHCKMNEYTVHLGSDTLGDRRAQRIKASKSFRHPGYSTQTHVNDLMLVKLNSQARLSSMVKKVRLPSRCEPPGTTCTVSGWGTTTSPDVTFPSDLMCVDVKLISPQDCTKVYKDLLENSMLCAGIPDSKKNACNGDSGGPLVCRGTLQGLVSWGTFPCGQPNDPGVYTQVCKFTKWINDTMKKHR
binder,measurement,value
B1,"second-order rate constant of KLK7 inhibition by vaspin under pseudo-first-order conditions, x-fold over control, with polyP45 (polyP/serpin ratio of 10:1)",5 fold
same,"second-order rate constant of KLK7 inhibition by vaspin under pseudo-first-order conditions, x-fold over control, with unfractionated heparin (ligand/serpin ratio of 10)",5 fold
